First the molecules themselves.
B1: Ankyrin-1, residues 1405 to 1484; numbered along this chain, P16157 (parent)
chain: MKMAVISEHLGLSWAELARELQFSVEDINRIRVENPNSLLEQSVALLNLWVIREGQNANMENLYTALQSIDRGEIVNMLE

± gives the uncertainty stated by the source.

The variants in this data set derive from B1. Description: abundance fitness (aPCA) (normalised: wild type 0, dead -1); higher = more abundant; growth selection in yeast, the domain comes from the species named. Conditions: Homo sapiens.
Consider MKMAVISEHLGLYWAELARELQFSVEDINRIRVENPNSLLEQSVALLNLWVIREGQNANMENLYTALQSIDRGEIVNMLE [S13Y], for which the abundance fitness is -0.504 ± 0.15.

With MKMAVISEHLGLVWAELARELQFSVEDINRIRVENPNSLLEQSVALLNLWVIREGQNANMENLYTALQSIDRGEIVNMLE [S13V], the abundance fitness is -0.5 ± 0.049.

With MKMAVISEHLGLCWAELARELQFSVEDINRIRVENPNSLLEQSVALLNLWVIREGQNANMENLYTALQSIDRGEIVNMLE [S13C], the abundance fitness is -0.577 ± 0.12.

Take MKMAVISEHLGLPWAELARELQFSVEDINRIRVENPNSLLEQSVALLNLWVIREGQNANMENLYTALQSIDRGEIVNMLE [S13P]: the abundance fitness is -0.863 ± 0.39. Consider MKMAVISEHLGLFWAELARELQFSVEDINRIRVENPNSLLEQSVALLNLWVIREGQNANMENLYTALQSIDRGEIVNMLE [S13F], for which the abundance fitness is -0.333 ± 0.14. As to MKMAVISEHLGLGWAELARELQFSVEDINRIRVENPNSLLEQSVALLNLWVIREGQNANMENLYTALQSIDRGEIVNMLE [S13G], the abundance fitness is -0.237 ± 0.062. Turning to MKMAVISEHLGLTWAELARELQFSVEDINRIRVENPNSLLEQSVALLNLWVIREGQNANMENLYTALQSIDRGEIVNMLE [S13T], the abundance fitness is -0.472 ± 0.18.

As to MKMAVISEHLGLAWAELARELQFSVEDINRIRVENPNSLLEQSVALLNLWVIREGQNANMENLYTALQSIDRGEIVNMLE [S13A], the abundance fitness is -0.021 ± 0.11. To MKMAVISEHLGLRWAELARELQFSVEDINRIRVENPNSLLEQSVALLNLWVIREGQNANMENLYTALQSIDRGEIVNMLE [S13R] belongs -0.442 ± 0.09; to MKMAVISEHLGLLWAELARELQFSVEDINRIRVENPNSLLEQSVALLNLWVIREGQNANMENLYTALQSIDRGEIVNMLE [S13L], -0.417 ± 0.12; to MKMAVISEHLGLMWAELARELQFSVEDINRIRVENPNSLLEQSVALLNLWVIREGQNANMENLYTALQSIDRGEIVNMLE [S13M], -0.441 ± 0.2. For MKMAVISEHLGLWWAELARELQFSVEDINRIRVENPNSLLEQSVALLNLWVIREGQNANMENLYTALQSIDRGEIVNMLE [S13W], the abundance fitness was -0.494 ± 0.16.

As to MKMAVISEHLGLDWAELARELQFSVEDINRIRVENPNSLLEQSVALLNLWVIREGQNANMENLYTALQSIDRGEIVNMLE [S13D], the abundance fitness turned out to be 0.155 ± 0.089. The result for MKMAVISEHLGLNWAELARELQFSVEDINRIRVENPNSLLEQSVALLNLWVIREGQNANMENLYTALQSIDRGEIVNMLE [S13N] reads -0.404 ± 0.18; that for MKMAVISEHLGLIWAELARELQFSVEDINRIRVENPNSLLEQSVALLNLWVIREGQNANMENLYTALQSIDRGEIVNMLE [S13I], -0.815 ± 0.3.

As for MKMAVISEHIGLSWAELARELQFSVEDINRIRVENPNSLLEQSVALLNLWVIREGQNANMENLYTALQSIDRGEIVNMLE [L10I], the abundance fitness is -0.172 ± 0.15.

MKMAVISEHFGLSWAELARELQFSVEDINRIRVENPNSLLEQSVALLNLWVIREGQNANMENLYTALQSIDRGEIVNMLE [L10F]: the abundance fitness is -0.706 ± 0.27.

As for MKMAVISEHQGLSWAELARELQFSVEDINRIRVENPNSLLEQSVALLNLWVIREGQNANMENLYTALQSIDRGEIVNMLE [L10Q], the abundance fitness is -0.898 ± 0.29. The result for MKMAVISEHAGLSWAELARELQFSVEDINRIRVENPNSLLEQSVALLNLWVIREGQNANMENLYTALQSIDRGEIVNMLE [L10A] reads -0.884 ± 0.2; that for MKMAVISEHEGLSWAELARELQFSVEDINRIRVENPNSLLEQSVALLNLWVIREGQNANMENLYTALQSIDRGEIVNMLE [L10E], -1.11 ± 0.41. On to MKMAVISEHNGLSWAELARELQFSVEDINRIRVENPNSLLEQSVALLNLWVIREGQNANMENLYTALQSIDRGEIVNMLE [L10N], for which the abundance fitness is -0.69 ± 0.28. Regarding MKMAVISEHWGLSWAELARELQFSVEDINRIRVENPNSLLEQSVALLNLWVIREGQNANMENLYTALQSIDRGEIVNMLE [L10W], the abundance fitness is -0.872 ± 0.23.

Turning to MKMAVISEHGGLSWAELARELQFSVEDINRIRVENPNSLLEQSVALLNLWVIREGQNANMENLYTALQSIDRGEIVNMLE [L10G], the abundance fitness was -0.971 ± 0.21. Turning to MKMAVISEHMGLSWAELARELQFSVEDINRIRVENPNSLLEQSVALLNLWVIREGQNANMENLYTALQSIDRGEIVNMLE [L10M], the abundance fitness was -0.805 ± 0.27. The result for MKMAVISEHSGLSWAELARELQFSVEDINRIRVENPNSLLEQSVALLNLWVIREGQNANMENLYTALQSIDRGEIVNMLE [L10S] reads -0.852 ± 0.22.

With MKMAVISEHKGLSWAELARELQFSVEDINRIRVENPNSLLEQSVALLNLWVIREGQNANMENLYTALQSIDRGEIVNMLE [L10K], the abundance fitness was -0.509 ± 0.38. The result for MKMAVISEHRGLSWAELARELQFSVEDINRIRVENPNSLLEQSVALLNLWVIREGQNANMENLYTALQSIDRGEIVNMLE [L10R] reads -0.895 ± 0.16. Regarding MKMAVISENLGLSWAELARELQFSVEDINRIRVENPNSLLEQSVALLNLWVIREGQNANMENLYTALQSIDRGEIVNMLE [H9N], the abundance fitness is -0.019 ± 0.18. To MKMAVISEPLGLSWAELARELQFSVEDINRIRVENPNSLLEQSVALLNLWVIREGQNANMENLYTALQSIDRGEIVNMLE [H9P] belongs -0.666 ± 0.18; to MKMAVISETLGLSWAELARELQFSVEDINRIRVENPNSLLEQSVALLNLWVIREGQNANMENLYTALQSIDRGEIVNMLE [H9T], -0.285 ± 0.16; to MKMAVISEYLGLSWAELARELQFSVEDINRIRVENPNSLLEQSVALLNLWVIREGQNANMENLYTALQSIDRGEIVNMLE [H9Y], -0.388 ± 0.13. Take MKMAVISESLGLSWAELARELQFSVEDINRIRVENPNSLLEQSVALLNLWVIREGQNANMENLYTALQSIDRGEIVNMLE [H9S]: the abundance fitness is -0.868 ± 0.39. On to MKMAVISERLGLSWAELARELQFSVEDINRIRVENPNSLLEQSVALLNLWVIREGQNANMENLYTALQSIDRGEIVNMLE [H9R], for which the abundance fitness is -0.33 ± 0.083. The result for MKMAVISEWLGLSWAELARELQFSVEDINRIRVENPNSLLEQSVALLNLWVIREGQNANMENLYTALQSIDRGEIVNMLE [H9W] reads -0.251 ± 0.096.

(Values after the Human Domainome abundance scans (Beltran et al. 2025).)
